T1: human ANGPT2 (R&D Systems) (human, UniProt O15123 68-496, limits assumed)
T1 construct: Bought reagent; also called hANGPT2; Angiopoietin-2
T1 sequence (looked up): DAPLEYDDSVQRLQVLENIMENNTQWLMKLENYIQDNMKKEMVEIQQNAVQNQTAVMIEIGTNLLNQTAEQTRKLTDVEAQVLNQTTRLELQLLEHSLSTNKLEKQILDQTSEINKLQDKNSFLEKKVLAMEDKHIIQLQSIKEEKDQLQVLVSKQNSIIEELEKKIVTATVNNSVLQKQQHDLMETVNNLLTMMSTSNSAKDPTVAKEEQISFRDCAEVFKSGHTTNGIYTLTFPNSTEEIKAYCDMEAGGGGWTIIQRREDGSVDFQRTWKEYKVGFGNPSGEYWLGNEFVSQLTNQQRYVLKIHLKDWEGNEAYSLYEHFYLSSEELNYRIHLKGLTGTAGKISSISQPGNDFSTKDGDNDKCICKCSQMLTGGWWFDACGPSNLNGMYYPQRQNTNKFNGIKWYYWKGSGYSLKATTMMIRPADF


Legend:
[1] = target: T2, recombinant human IGF-1R on I24 cells (NIH3T3 cells expressing recombinant human IGF-1R) (human, UniProt P08069 31-1367); assay: cellular FACS IGF-1R-ANGPT2 bridging assay on I24 cells; antibody on cells, washed, then ANGPT2, detected with biotinylated anti-ANGPT2 and Streptavidin-PE
T2 construct: whole, on cells; also called IGF-1R in I24 cells
Experimental: (§1) The assay principle is depicted in FIG. 10.
(§2) Briefly, 5×10E5 I24 cells per FACS tube were incubated with total purified antibody mix and incubated on ice for 1 h (titration 160 μg/ml mix). The respective purified antibodies wildtype <IGF-1R> and <ANGPT2> were applied to the I24 cells as controls. Unbound antibody was washed away with 4 ml ice cold PBS (Gibco)+2% FCS (Gibco), cells were centrifuged (5 min at 400 g) and bound bispecific antibody was detected with 50 μl 2 μg/mL human ANGPT2 (R&D Systems) for 1 h on ice. Subsequently, unbound ANGPT2 was washed away once or twice with 4 ml ice cold PBS (Gibco)+2% FCS (Gibco), cells were centrifuged (5 min at 400 g) and bound ANGPT2 was detected with 50 μl 5 μg/mL <ANGPT2>mIgG1-Biotin antibody (BAM0981, R&D Systems) for 45 min on ice; alternatively, cells were incubated with 50 μl 5 μg/mL mIgG1-Biotin-Isotype control (R&D Systems). Unbound detection antibody was washed away with 4 ml ice cold PBS (Gibco)+2% FCS (Gibco), cells were centrifuged (5 min at 400 g) and bound detection antibody was detected with 50 μl 1:400 Streptavidin-PE conjugate (Invitrogen/Zymed) for 45 min on ice protected from light. Unbound Streptavidin-PE conjugate was washed away with 4 ml ice cold PBS+2% FCS. […]

[2] = target: T1, human ANGPT2 (R&D Systems); assay: cellular FACS IGF-1R-ANGPT2 bridging assay on I24 cells; antibody on cells, then ANGPT2, detected with biotinylated anti-ANGPT2 and Streptavidin-PE
Experimental: as §1, §2

Row | Binder | binding result [1] | binding result [2]
1 | monospecific, bivalent <ANGPT2> wildtype antibody (antibody, V domains shown, Human IgG1/kappa antibody described in WO 2006/045049; also called wildtype <ANGPT2> antibody; <Ang-2> control antibody) VH: EVQLVQSGGGVVQPGRSLRLSCAASGFTFSSYGMHWVRQAPGKGLEWVSYISSSGSTIYYADSVKGRFTISRDNAKNSLYLQMNSLRAEDTAVYYCARDLLDYDILTGYGYWGQGTLVTVSS VL: not shown | no binding | –
2 | wildtype <IGF-1R> antibody (antibody, V domains shown, Human IgG1/kappa antibody described in WO 2005/005635; also called <IGF-1R> wildtype antibody; <IGF-1R> control antibody) VH: QVELVESGGGVVQPGRSQRLSCAASGFTFSSYGMHWVRQAPGKGLEWVAIIWFDGSSTYYADSVRGRFTISRDNSKNTLYLQMNSLRAEDTAVYFCARELGRRYFDLWGRGTLVSVSS VL: EIVLTQSPATLSLSPGERATLSCRASQSVSSYLAWYQQKPGQAPRLLIYDASKRATGIPARFSGSGSGTDFTLTISSLEPEDFAVYYCQQRSKWPPWTFGQGTKVESKR | – | no binding (tested: 2 µg/mL human ANGPT2)
